Results: article PMC7673989 (2020)

Assays:
KETWV peptide [1] = target: T1, KETWV peptide (synthetic construct); test: ITC, 21 °C
T1 chain: KETWV

KETWV peptide [2] = target: T1, KETWV peptide; test: intrinsic tryptophan fluorescence quenching, 21 °C

B1: PSD-95 PDZ3 302-403 (protein)
chain: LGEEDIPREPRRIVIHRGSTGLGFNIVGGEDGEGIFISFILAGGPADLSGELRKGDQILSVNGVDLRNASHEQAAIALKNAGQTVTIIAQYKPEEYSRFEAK
Kd (KETWV peptide [1]): 25.2 µM | Kd (KETWV peptide [2]): 24.6 µM
